Tested on: MS2 coat protein
Experiment: apparent KD of MS2 coat protein; designed switch direction (-1 OFF switch, 1 ON switch): -1; higher = weaker reporter binding
Method in brief: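 For each design, the apparent KD is the median over clusters of curves fitted to normalised cluster fluorescence. Clusters held RNA switches with common flanks, transcribed on Illumina chips by stalled E. coli RNA polymerase. These were titrated with SNAP-549-labelled MS2 coat protein, doubling from 0.7 or 1.5 nM to 3 µM, without input, with 200 uM small-molecule ligand, or with an oligonucleotide input.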

[1] = input ligand: microRNA oligo, concentration not stated
[2] = Eterna round: R95, input ligand: FMN 200 uM
[3] = Eterna round: R95, input ligand: microRNA oligo, concentration not stated
[4] = Eterna round: R95, input ligand: none

Sequence | apparent KD of MS2 coat protein (input ligand: FMN 200 uM) [nM] | apparent KD of MS2 coat protein [1] [nM] | apparent KD of MS2 coat protein (input ligand: none) [nM] | apparent KD of MS2 coat protein [2] [nM] | apparent KD of MS2 coat protein [3] [nM] | apparent KD of MS2 coat protein [4] [nM]
CAUGAUUGGCGAGGAUAUUGAUCUAGUUGGCGACGAGAAGGCGCCUGUCACAUGAGGAUCACCCAUGUGAAUCUGGUGGAUGAG [Ex NG1 #88] (Eterna round: R96, puzzle: Exclusion NG 1) | 23 | 18.4 | 23.5 | – | – | –
CAUGGAACGUAGGAUAUCUCGCAGCCCGACUGCAGAGAAGGACGUACAUGAGGAUCACCCAUGUAUGAUCCAAA [Vexeoren] (puzzle: Exclusion 6) | – | – | – | 29.2 | 18.1 | 23.3
CAUGGAUGUGAGCCGCAUUACAUGAGGAUCACCCAUGUCAACAAGCUUUUUGCUUAUCUUACGCGGCGGCAUCAAAA [Enisusti] (puzzle: Sensor v3, turn-off variant 1) | – | – | – | 13.4 | 11.8 | 9.39
CAUGGAUGUGAGCCGCAUUACAUGAGGAUCACCCAUGUCAACAAGCUUUUUGCUUGUCUUACGCGGCGACAUCAGAA [Tiquatge] (puzzle: Sensor v3, turn-off variant 1) | – | – | – | 11.7 | 8.33 | 10.1
CAUGUCCAACGAGGAUAUGGGAAAGGAAGUGUACCAGAAGGCGUACGGACAUGAGGAUCACCCAUGUCGCGCGGUGCGAUGUGG [MOD2 Nando EXNG 1.1] (Eterna round: R96, puzzle: Exclusion NG 1) | 112 | 39.1 | 98.9 | – | – | –
CAUUACUACAAGCUUGGGAACAUGAGGAUCACCCAUGUUCGUCUUAUUGAUCUAGGUACGCUGACGUACCUAGAUCU [JL-sv1-2.24 Brourd mod] (puzzle: Sensor v3, turn-off variant 1) | – | – | – | 14.3 | 21.7 | 13.3
CAUUACUGCAAGCUAUGGGACAUGAGGAUCACCCAUGUUCGUCUUAUUGAUCUAGGUACGCUGACGUACCUAGAUCU [JL-sv1-2.21 Brourd mod] (puzzle: Sensor v3, turn-off variant 1) | – | – | – | 16.3 | 21.4 | 15
CCAAGCUUAUUCAUUAACAACAUGAGGAUCACCCAUGUAUAGGCAAUUAUGUUUGGGCUCUUUAGUGCUCGUCUUAU [Sensor-V1 #23] (Eterna round: R97, puzzle: Sensor, turn-off variant 1) | 16.1 | – | 15.5 | – | – | –
CCAAGCUUAUUCAUUAACCACAUGAGGAUCACCCAUGUAUAGGCAAUUAUGACUGGGCCAUCUGGUGCUCGUCUUAU [Sensor-V1 #29] (Eterna round: R97, puzzle: Sensor, turn-off variant 1) | 16.2 | – | 15.2 | – | – | –
CCACGACAUGAGGAUCACCCAUGUGAGGAUAUGACCUGAAAAGCGUGAGCAGUUUGUAUCAGAAGGCGCGUAGG [salish99_ex1_r4_067] (Eterna round: R97, puzzle: Exclusion 1) | 35.9 | – | 44.2 | – | – | –
CCACUGUCAGGAUAUCGUGCAUACAACGAAAGUUCUAUGUGCGAGAAGGGACAUGAGGAUCACCCAUGUAAACG [Omei Ex4 A28] (Eterna round: R97, puzzle: Exclusion 4) | 582 | – | 138 | – | – | –
CCAGGGCACAAUUAAACGCCCUAACAUGAGGAUCACCCAUGUCAGGAUAUGUAGGCAAAGACCCUACAGAAGGGACAUGUCCUA [Xegeat] (Eterna round: R96, puzzle: Exclusion NG 3) | 217 | 76.1 | 49.9 | – | – | –
CCAUAUAACUGAGGAUAUACUCACCACUAACAUGUAGAAGGCAGACAUGAGGAUCACCCAUGUGAUUUCUCAAUAUUAUACAUC [Prohibition 75 - Jieux - Exclusion NG 1] (Eterna round: R96, puzzle: Exclusion NG 1) | – | 500 | – | – | – | –
CCAUCGAGUGUGAGGAUAUGCUGUUCCUAAGAGCAGCAGAAGGCACAUGAGGAUCACCCAUGUGGAUACGGUGG [Mat - Exclusion 4 - JL Mod - D81] (puzzle: Brourd's mod of Exclusion 4) | – | – | – | 172 | 29.2 | 31.1
CCAUGAUAAGGAUAUUGAAGGUUCGACAUGAGGAUCACCCAUGUUAUGUUGGAAAAGGGACAAGAAGGUAUGAAUU [salish99_ex5_r4_220] (Eterna round: R97, puzzle: Exclusion 5) | 34.7 | – | 35.1 | – | – | –
CCCAGUUAUCAAGGAUAUUGUACAUGAGGAUCACCCAUGUAAUAAAUGAGGAUUUCGGGUGUCUACAAGAAGGUGAGGAUAGGC [Ostracism 15 - Jieux - Exclusion NG 2] (Eterna round: R96, puzzle: Exclusion NG 2) | 26.6 | 22.4 | 46.4 | – | – | –

Sequence | apparent KD of MS2 coat protein (input ligand: FMN 200 uM) [nM] | apparent KD of MS2 coat protein [1] [nM] | apparent KD of MS2 coat protein (input ligand: none) [nM] | apparent KD of MS2 coat protein [2] [nM] | apparent KD of MS2 coat protein [3] [nM] | apparent KD of MS2 coat protein [4] [nM]
CCCAGUUAUUGAGGAUAUCCUACAUGAGGAUCACCCAUGUAAUAAAUGAGGAUUUCGGGUGUCUAGGAGAAGGCAAGGAUAGGC [Ostracism 22 - Jieux - Exclusion NG 2] (Eterna round: R96, puzzle: Exclusion NG 2) | 63.7 | 39.8 | 50.5 | – | – | –
CCCGAUGGAUAGGAUAUCCGGCAAGUAUGCUAUGGAGAAGGGUUCACAUGAGGAUCACCCAUGUGGGUUAAACG [Eternabot (L1) Solution 74] (Eterna round: R97, puzzle: Exclusion 6) | 22 | – | 19.3 | – | – | –
CCCUCACAUGAGGAUCACCCAUGUCAGGAUAUCUCACAUCGGCCUUAGGCCGAUGUCUAGAGAAGGGACGUAUC [Ceonte] (puzzle: Exclusion 1) | – | – | – | – | 22.9 | –
CCCUCACUUGAGGAUCACCCAAGUCAGGAUAUCUCCCGCCCAACACCAUCCGGGCGCCAGAGAAGGGACUCAAA [Soenonor] (Eterna round: R97, puzzle: Exclusion 1) | 24.4 | – | 17.5 | – | – | –
CCCUGACAUGAGGAUCACCCAUGUUAGGAUAUAACAUUUGACACUACAGUGUGAAGUGUUAGAAGGGAUAUGGG [-27.9, -26.2 kcal, A 31%] (Eterna round: R97, puzzle: Exclusion 1) | 32.4 | – | 28.7 | – | – | –
CCGAAGUCCUGCGGAGUUCACAUGAGGAUCACCCAUGUAGGCGAGGAUAUUUAUGAUACAUGAGUAAAGAAGGCGUCUGGUAAA [Eternabot solution 26] (Eterna round: R96, puzzle: Exclusion NG 3) | 40.7 | 18.2 | 29.1 | – | – | –
CCGCAAAUGCAGGAUAUCGUAUCGGAUACGAUACGAGAAGGGCGUACAUGAGGAUCACCCAUGUGUCCUAGCGG [Fiskers Ex 6 - 42] (puzzle: Exclusion 6) | – | – | – | – | 16.6 | –
CCGCGUGAUUAGGAUAUCAAACUAGCGUGUACAUGAGAAGGGAUCACAUGAGGAUCACCCAUGUAAGGGAUCCU [Eternabot (L1) Solution 69] (Eterna round: R97, puzzle: Exclusion 6) | 93.2 | – | 56.1 | – | – | –
CCGCUAAUAGGAUAUACAUGAGGAUCACCCAUGUCACUCUUCAUUGGUGUCUCUUCAAGUAGAAGGGUUGCUCA [Atisdi] (puzzle: Exclusion 3) | – | – | – | – | 28.4 | –
CCGCUCCGUGUAGGAUAUCGGUGUACCCUGCGCCGAGAAGGACAUGAGGAUCACCCAUGUAUGUUAUUAUCACGCGUGGCGCAC [Design 73] (Eterna round: R96, puzzle: Exclusion NG 1) | 37.7 | 18.9 | 37.7 | – | – | –
CCGGAAAGGAAGGAUAUGCUAGACGAAAGUCUAGCAGAAGGUCCUACAUGAGGAUCACCCAUGUGGCCUCCCGG [Eli x6 4.09] (Eterna round: R97, puzzle: Exclusion 6) | 267 | – | 137 | – | – | –
CCGGAAAUAGAGGAUAUAGGACUGGAUACAGUCCUAGAAGGCUAUACAUGAGGAUCACCCAUGUGUCCUACCGG [Fiskers Ex 6 - 63] (puzzle: Exclusion 6) | – | – | – | – | 14.1 | –
CCGGAAAUGCAGGAUAUCGUAUCGGAUACGAUACGAGAAGGGUAUACAUGAGGAUCACCCAUGUGUCCUACCGG [Fiskers Ex 6 - 49] (puzzle: Exclusion 6) | – | – | – | – | 18.3 | –
CCGGAAAUGGAGGAUAUAGGAGUCGAUAGACACCUAGAAGGUCAGACAUGAGGAUCACCCAUGUGUCCUACCGG [Fiskers Ex 6 - 88] (puzzle: Exclusion 6) | – | – | – | – | 14.9 | –
CCGGAACAUGAGGAUCACCCAUGUCAGGAUAUGAAUAAAUCGUCGAUAGACGAUAAUCUCAGAAGGGACACCGG [Mat - Exclusion 1 - Eli Mod - D27] (Eterna round: R97, puzzle: Exclusion 1) | 24.5 | – | 24.2 | – | – | –

Reference: the supplement of paper PMC9170038
